Experimental data as given in article doi:10.1101/2021.03.07.433908 (bioRxiv, 2021).

Target: the molecule itself
Experiment: pulsed field gradient diffusion NMR

B1: Human αB-crystallin (natural protein)
chain: MDIAIHHPWIRRPFFPFHSPSRLFDQFFGEHLLESDLFPTSTSLSPFYLRPPSFLRAPSWFDTGLSEMRLEKDRFSVNLDVKHFSPEELKVKVLGDVIEVHGKHEERQDEHGFISREFHRKYRIPADVDPLTITSSLSSDGVLTVNGPRKQVSGPERTIPITREEKPAVTAAPKK
modifications: 15N labelled (HSQC spectra); 2H/13CH3 Ile δ1, Val γ1/γ2, Leu δ1/δ2 labelled (binding studies and diffusion analyses)
stoichiometry N: 28
